This test concerns the target TRPV6_(CysKO) D34C-R631C double mutant (rat) (UniProt Q9R186). Nature of the test: cross-linking.

For orientation: stoichiometry N means the number of molecules, sites or subunits per partner or assembly.

Turning to “TRPV6_(CysKO) D34C-R631C double mutant (from UniProt Q9R186 1-668) (natural protein)”, the stoichiometry N was found to be 4.

The values are drawn from publication PMC4919205.
